{
  "source": "patent US20230220098A1",
  "about": "“THERAPEUTIC DRUG FOR POLYCYTHEMIA” (PERSEUS PROTEOMICS INC., priority 2019, published 2023)",
  "key": {"mouse TfR": {"target": "mouse TfR (Mus musculus, UniProt Q62351)", "sequence (Q62351 whole entry)": "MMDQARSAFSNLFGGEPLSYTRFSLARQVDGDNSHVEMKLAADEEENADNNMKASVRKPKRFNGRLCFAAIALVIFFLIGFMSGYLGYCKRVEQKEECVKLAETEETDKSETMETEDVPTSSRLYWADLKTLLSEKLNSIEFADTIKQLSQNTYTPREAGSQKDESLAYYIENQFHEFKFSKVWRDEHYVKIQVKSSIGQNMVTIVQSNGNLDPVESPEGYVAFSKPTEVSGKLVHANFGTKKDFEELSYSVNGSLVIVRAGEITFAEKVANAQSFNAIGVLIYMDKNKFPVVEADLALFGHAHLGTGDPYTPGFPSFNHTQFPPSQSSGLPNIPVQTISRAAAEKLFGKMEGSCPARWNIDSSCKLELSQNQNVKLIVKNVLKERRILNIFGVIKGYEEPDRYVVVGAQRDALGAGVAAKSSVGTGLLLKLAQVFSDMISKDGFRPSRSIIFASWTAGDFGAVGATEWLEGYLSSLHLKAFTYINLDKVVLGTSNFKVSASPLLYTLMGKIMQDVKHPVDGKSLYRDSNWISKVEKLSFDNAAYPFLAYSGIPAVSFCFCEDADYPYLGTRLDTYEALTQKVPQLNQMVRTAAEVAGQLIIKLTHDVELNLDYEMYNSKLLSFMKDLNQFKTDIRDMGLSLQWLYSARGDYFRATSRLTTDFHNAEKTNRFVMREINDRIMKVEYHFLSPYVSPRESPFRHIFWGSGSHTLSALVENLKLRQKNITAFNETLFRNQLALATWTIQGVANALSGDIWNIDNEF", "assay": "Cross-reactivity of TfR436 antibody with mouse TfR", "assay_type": "binding"}, "hamster TfR": {"target": "hamster TfR (Cricetulus griseus, UniProt Q07891)", "sequence (Q07891 whole entry)": "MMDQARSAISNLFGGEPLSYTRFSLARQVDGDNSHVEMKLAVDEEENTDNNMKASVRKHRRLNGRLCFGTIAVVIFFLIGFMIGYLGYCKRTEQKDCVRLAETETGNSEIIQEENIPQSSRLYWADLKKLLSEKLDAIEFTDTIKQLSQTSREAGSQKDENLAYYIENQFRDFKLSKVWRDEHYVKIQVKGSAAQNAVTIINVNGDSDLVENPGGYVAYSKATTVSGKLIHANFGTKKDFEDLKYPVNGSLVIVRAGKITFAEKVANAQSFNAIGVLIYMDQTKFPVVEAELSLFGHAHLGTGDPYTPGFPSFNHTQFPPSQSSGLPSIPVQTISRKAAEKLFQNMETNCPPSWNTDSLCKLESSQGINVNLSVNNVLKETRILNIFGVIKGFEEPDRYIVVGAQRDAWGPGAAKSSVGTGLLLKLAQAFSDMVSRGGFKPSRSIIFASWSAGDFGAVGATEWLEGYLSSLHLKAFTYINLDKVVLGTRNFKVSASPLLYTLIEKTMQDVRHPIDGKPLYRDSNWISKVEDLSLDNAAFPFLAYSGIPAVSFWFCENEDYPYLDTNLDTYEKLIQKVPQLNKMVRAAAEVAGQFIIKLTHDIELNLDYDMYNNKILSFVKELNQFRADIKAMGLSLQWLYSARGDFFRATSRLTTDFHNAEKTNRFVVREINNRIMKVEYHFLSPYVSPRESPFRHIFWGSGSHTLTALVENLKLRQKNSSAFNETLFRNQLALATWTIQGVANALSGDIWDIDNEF", "assay": "Cross-reactivity of TfR436 antibody with hamster TfR", "assay_type": "binding"}, "[1]": {"tested_on": "PV patient-derived hematopoietic stem cells", "assay": "EPO-independent erythroblast (BFU-E/CFU-E) colony assay", "assay_type": "cell-based, human", "description": "PV patient-derived hematopoietic stem cells are characterized in that BFU-E or CFU-E is formed in the cells even in the absence of erythropoietin (EPO). The activity of TfR436 to inhibit the formation of these colonies was examined.\nThe peripheral blood of a PV patient, which had been obtained by phlebotomy, was dispensed into three 50-mL centrifuge tubes in an amount of 20 mL each, and an equal amount of PBS (Gibco) was then added to each tube, followed by mixing. Thereafter, 15 mL of LymphoSep, Lymphocyte Separation Media (MP Biomedicals™) was dispensed into […] novel 50-mL centrifuge tubes, and the peripheral blood diluted with PBS was then slowly added thereto in an amount of 30 mL each, and the obtained mixture was then centrifuged at 1,500 rpm at room temperature for 30 minutes. After completion of the centrifugation, the plasma as a supernatant was removed, and a PBMC layer was collected by transfer pipetting. The collected PBMC layer was suspended in 20 mL of PBS+2% FBS (Gibco). The thus obtained suspension was further centrifuged at 1350 rpm at room temperature for 10 minutes, a supernatant was then removed, and the residue was then suspended in 1 to 5 mL of IMDM (Nacalai Tesque)+2% FBS. Using 0.2% Trypan Blue, the number of cells was counted, and the cells were adjusted to 2×10^6 cells/mL by addition of IMDM+2% FBS.\nTfR436 and a human IgG1 antibody used as a negative control were each diluted with IMDM+2% FBS to an antibody concentration of […]. MethoCult™ H4534 Classic WithoutEPO (STEMCELL TECHNOLOGIES) was dispensed into seven 14-mL round bottle tubes in an amount of 3 mL each, and 300 jut of the above-prepared PBMC was then added thereto. Thereafter, an antibody-diluted solution or 3.3 μL of IMDM+2% FBS (control) was further added thereto, followed by full mixing. Thereafter, the reaction mixture was seeded on two 35-mm culture dishes in an amount of 1 mL each. This mixture was cultured at 37° C. in a 5% CO2 incubator for 14 days. After completion of the culture, the 35-mm culture dishes were observed under a microscope, and the number of the formed BFU-E or CFU-E colonies was then counted. The colony formation percentage with respect to the number of colonies obtained by a culture without addition of antibodies was then calculated."}},
  "data": [
    {"molecule": "TfR436: anti-human transferrin receptor antibody, VH SEQ ID NO: 7 and VL SEQ ID NO: 8, described in WO2014/073641; called PPMX-T003 in Tables 3 and 4 (antibody, listed as Homo sapiens, V domains shown) VH: DVQLVQSGGGVVQPGRSLRLSCAASGFPFKSYGMHWVRQAPGKGLEWVAVISYDGSNKYYADSVKGRFTISRDNSKNTLYLQMNSLRGEDTAVYYCARDSNFWSGYYSPVDVWGQGTTVTVSS VL: NFMLTQPHSVSESPGKTVTISCTRSSGSIASNSVQWYQQRPGSAPITVIYEDTQRPSGVPDRFSGSIDSSSNSASLTISGLQTEDEADYYCQSYDSAYHWVFGGGTKLAVL", "values": [
      {"measurement": "cross-reactivity with mouse TfR", "setting": "mouse TfR", "value": "did not cross-react"},
      {"measurement": "cross-reactivity with hamster TfR", "setting": "hamster TfR", "value": "exhibited cross-reactivity"},
      {"measurement": "formation of erythroblast colonies", "setting": "[1]; 100 ng/mL or more, 14 days, without EPO", "value": "almost completely inhibited"},
      {"measurement": "colony formation percentage with respect to culture without addition of antibodies", "setting": "[1]; pt No. 1, 10 ng/mL", "value": 87.1, "unit": "%"},
      {"measurement": "colony formation percentage with respect to culture without addition of antibodies", "setting": "[1]; pt No. 1, 100 ng/mL", "value": 0.0, "unit": "%"},
      {"measurement": "colony formation percentage with respect to culture without addition of antibodies", "setting": "[1]; pt No. 1, 1000 ng/mL", "value": 0.0, "unit": "%"},
      {"measurement": "colony formation percentage with respect to culture without addition of antibodies", "setting": "[1]; pt No. 2, 10 ng/mL", "value": 149.0, "unit": "%"},
      {"measurement": "colony formation percentage with respect to culture without addition of antibodies", "setting": "[1]; pt No. 2, 100 ng/mL", "value": 2.1, "unit": "%"},
      {"measurement": "colony formation percentage with respect to culture without addition of antibodies", "setting": "[1]; pt No. 2, 1000 ng/mL", "value": 0.0, "unit": "%"},
      {"measurement": "colony formation percentage with respect to culture without addition of antibodies", "setting": "[1]; pt No. 3, 10 ng/mL", "value": 91.7, "unit": "%"},
      {"measurement": "colony formation percentage with respect to culture without addition of antibodies", "setting": "[1]; pt No. 3, 100 ng/mL", "value": 0.0, "unit": "%"},
      {"measurement": "colony formation percentage with respect to culture without addition of antibodies", "setting": "[1]; pt No. 3, 1000 ng/mL", "value": 0.0, "unit": "%"},
      {"measurement": "colony formation percentage with respect to culture without addition of antibodies", "setting": "[1]; pt No. 7, 10 ng/mL", "value": 63.6, "unit": "%"},
      {"measurement": "colony formation percentage with respect to culture without addition of antibodies", "setting": "[1]; pt No. 7, 100 ng/mL", "value": 0.0, "unit": "%"},
      {"measurement": "colony formation percentage with respect to culture without addition of antibodies", "setting": "[1]; pt No. 7, 1000 ng/mL", "value": 0.0, "unit": "%"},
      {"measurement": "colony formation percentage with respect to culture without addition of antibodies", "setting": "[1]; pt No. 9, 10 ng/mL", "value": 63.3, "unit": "%"},
      {"measurement": "colony formation percentage with respect to culture without addition of antibodies", "setting": "[1]; pt No. 9, 100 ng/mL", "value": 0.0, "unit": "%"},
      {"measurement": "colony formation percentage with respect to culture without addition of antibodies", "setting": "[1]; pt No. 9, 1000 ng/mL", "value": 1.0, "unit": "%"},
      {"measurement": "colony formation percentage with respect to culture without addition of antibodies", "setting": "[1]; pt No. 11, 10 ng/mL", "value": 80.8, "unit": "%"},
      {"measurement": "colony formation percentage with respect to culture without addition of antibodies", "setting": "[1]; pt No. 11, 100 ng/mL", "value": 0.0, "unit": "%"},
      {"measurement": "colony formation percentage with respect to culture without addition of antibodies", "setting": "[1]; pt No. 11, 1000 ng/mL", "value": 0.0, "unit": "%"},
      {"measurement": "colony formation percentage with respect to culture without addition of antibodies", "setting": "[1]; pt No. 13, 10 ng/mL", "value": 35.2, "unit": "%"},
      {"measurement": "colony formation percentage with respect to culture without addition of antibodies", "setting": "[1]; pt No. 13, 100 ng/mL", "value": 23.9, "unit": "%"},
      {"measurement": "colony formation percentage with respect to culture without addition of antibodies", "setting": "[1]; pt No. 13, 1000 ng/mL", "value": 19.7, "unit": "%"},
      {"measurement": "colony formation percentage with respect to culture without addition of antibodies", "setting": "[1]; pt No. 14, 10 ng/mL", "value": 68.9, "unit": "%"},
      {"measurement": "colony formation percentage with respect to culture without addition of antibodies", "setting": "[1]; pt No. 14, 100 ng/mL", "value": 0.0, "unit": "%"},
      {"measurement": "colony formation percentage with respect to culture without addition of antibodies", "setting": "[1]; pt No. 14, 1000 ng/mL", "value": 0.0, "unit": "%"},
      {"measurement": "colony formation percentage with respect to culture without addition of antibodies", "setting": "[1]; pt No. 15, 10 ng/mL", "value": 6.7, "unit": "%"},
      {"measurement": "colony formation percentage with respect to culture without addition of antibodies", "setting": "[1]; pt No. 15, 100 ng/mL", "value": 0.0, "unit": "%"},
      {"measurement": "colony formation percentage with respect to culture without addition of antibodies", "setting": "[1]; pt No. 15, 1000 ng/mL", "value": 3.3, "unit": "%"},
      {"measurement": "colony formation percentage with respect to culture without addition of antibodies", "setting": "[1]; pt No. 18, 10 ng/mL", "value": 47.6, "unit": "%"},
      {"measurement": "colony formation percentage with respect to culture without addition of antibodies", "setting": "[1]; pt No. 18, 100 ng/mL", "value": 0.0, "unit": "%"},
      {"measurement": "colony formation percentage with respect to culture without addition of antibodies", "setting": "[1]; pt No. 18, 1000 ng/mL", "value": 0.0, "unit": "%"},
      {"measurement": "colony formation percentage with respect to culture without addition of antibodies", "setting": "[1]; pt No. 20, 10 ng/mL", "value": 143.8, "unit": "%"},
      {"measurement": "colony formation percentage with respect to culture without addition of antibodies", "setting": "[1]; pt No. 20, 100 ng/mL", "value": 0.0, "unit": "%"},
      {"measurement": "colony formation percentage with respect to culture without addition of antibodies", "setting": "[1]; pt No. 20, 1000 ng/mL", "value": 0.0, "unit": "%"}
    ]}
  ]
}
